Substitutions are numbered along the chain they refer to.
T1: TP-51 peptide (aa 352-414 of SEQ ID NO:1) (human)
T1 construct: Synthetic peptide (Pepscan)
T1 peptide: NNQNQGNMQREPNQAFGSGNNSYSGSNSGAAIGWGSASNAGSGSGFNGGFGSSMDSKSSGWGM

B1: cACI-7069-633B12-Ab1 (human IgG1 chimeric) (antibody, V domains shown)
VH: EVQLQQSGPELVKPGASVKISCKTSGFTFTEYSMHWVKQSHGKSLEWIGGINPNNGGTSYNQKFKGKATLTVDKSSSTAYMELRSLTSEDSAVYYCARESWGQGTTLTVSS
VL: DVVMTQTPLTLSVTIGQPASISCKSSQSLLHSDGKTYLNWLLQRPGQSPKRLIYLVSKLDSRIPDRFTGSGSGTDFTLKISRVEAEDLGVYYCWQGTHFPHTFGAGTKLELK
notes: also called chimeric antibody
B2: hACI-7069-633B12-Ab1_H16L14 (IgG1) (antibody, V domains shown)
VH: EVQLVQSGAEVKKPGASVKVSCKASGFTFTEYSMHWVRQAPGQRLEWMGGINPGNAGTSYNQKFKGRVTITVDTSASTAYMELSSLRSEDTAVYYCARESWGQGTTVTVSS
VL: DVVMTQSPLSLPVTLGQPASISCKSSQSLLHSDAKTYLNWLQQRPGQSPRRLIYLVSKLDSGVPDRFSGSGSGTDFTLKISRVEAEDLGVYYCFQGTHFPHTFGQGTKLEIK
notes: Human IgG1 / kappa
B3: hACI-7069-633B12-Ab1_H15L18 (IgG1) (antibody, V domains shown)
VH: B2 VH with E1Q
VL: B2 VL with G62R
notes: Human IgG1 / kappa
B4: hACI-7069-633B12-Ab1_H23L20 (IgG1) (antibody, V domains shown)
VH: B2 VH with E1Q, A24T, M48I, A56G
VL: B2 VL with A34G, G62R, F94W
notes: Human IgG1 / kappa
B5: hACI-7069-633B12-Ab1_H20L19 (IgG1) (antibody, V domains shown)
VH: B2 VH with A24T, M48I
VL: B2 VL with R50K, G62R
notes: Human IgG1 / kappa
B6: hACI-7069-633B12-Ab1_H19L18 (IgG1 isotype) (antibody, V domains shown)
VH: B2 VH with E1Q, A24T, M48I
VL: B2 VL with G62R
notes: Human IgG1 / kappa; also called hACI-7069-633B12-Ab1_H19L18 (hIgG1 isotype)
B7: ACI-7071-809D9-Ab2 (antibody, mouse IgG2b, V domains shown)
VH: QVQLQQSGAELVRPGVSVKISCKGSGYKFTDYSMHWVKQSHTKSLEWIGVISTYYGDTTYNQKFKGKATITVDKSSSTAYMELARLTSEDSAIYYCATYGNFPASFSYWGQGTLVTVSA
VL: DIVMTQAAPSIPVTPGESVSISCRSSKSLLHSNGNTYLYWFLQRPGQSPQLLIYRMSNLASGVPDRFSGSGSGTAFTLRISRVEAEDVGVYYCMQHLEYPFTFGSGTKLEIK
notes: Mouse IgG2b, kappa, from hybridoma; also called 809D9C2
B8: ACI-7069-631B2-Ab1 (antibody, mouse IgG1, V domains shown)
VH: B1 VH with F27Y, M34I, K43E, N54D, S59R, E82D
VL: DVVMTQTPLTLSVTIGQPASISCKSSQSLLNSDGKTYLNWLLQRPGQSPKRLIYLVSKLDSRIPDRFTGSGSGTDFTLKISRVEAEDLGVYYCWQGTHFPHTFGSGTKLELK
notes: Mouse IgG1, kappa, from hybridoma; also called 631B2A2
B9: hACI-7069-633B12-Ab1_H19L19 (IgG4) (antibody, V domains shown)
VH: B2 VH with E1Q, A24T, M48I
VL: B2 VL with R50K, G62R
B10: hACI-7069-633B12-Ab1_H20L18 (IgG4) (antibody, V domains shown)
VH: B2 VH with A24T, M48I
VL: B2 VL with G62R

Molecular target: T2, recombinant human full-length TDP-43 (TAR DNA-binding protein 43), soluble (human, UniProt Q13148 1-414)
T2 construct: Used on Luminex beads, coated on ELISA plates, and immobilized or injected in SPR; also called FL TDP-43; TDP-43 protein
Experiment: SPR 8K, immobilized soluble TDP-43; IgG1
Method: (§1) The instrument was primed with running buffer PBS-P+ and flow cells (Fc) 1 and 2 of channels 1-8 were activated with a fresh solution of EDC/NHS (Amine Coupling Kit, 1:1 ratio of both reagents, GE Healthcare Life Sciences, BR-1006-33) at 10 µL/min for 420 sec. Soluble TDP-43 (Selvita) was diluted in sodium acetate pH 4.5 to a final concentration of 5 µg/mL and injected for 900 sec with a flow rate of 5 µL/min on Fc 2. All flow cells were quenched with 1 M ethanol amine (GE Healthcare Life Sciences, BR-1006-33), at 10 µL/min for 420 sec. Immobilization levels after ethanolamine quenching were 680 RU on all eight channels. Prior to analysis, two Startup cycles were run. Increasing mAbs concentrations were injected in single-cycle kinetics ranging from 1.2 to 100 nM, prepared from a 3-fold serial dilution in running buffer, with a contact time of 300 sec and a dissociation time of 900 sec at a flow rate of 30 µL/min. Each cycle was followed by one regeneration using 10 mM Glycine-HCl pH 1.7 with a contact time of 30 sec at 30 µL/min, followed by a stabilization period of 300 sec. Results obtained from single-cycle kinetics were double-referenced using the blank Fc 1 and buffer cycles and evaluated using Biacore 8 K evaluation software using the 1:1 kinetic fit model with RI and global Rmax. The following kinetic parameters were obtained: association rate constant (ka), dissociation rate constant (kd), affinity constant (KD) and saturation response (Rmax).

T2 sequence (Q13148 whole entry): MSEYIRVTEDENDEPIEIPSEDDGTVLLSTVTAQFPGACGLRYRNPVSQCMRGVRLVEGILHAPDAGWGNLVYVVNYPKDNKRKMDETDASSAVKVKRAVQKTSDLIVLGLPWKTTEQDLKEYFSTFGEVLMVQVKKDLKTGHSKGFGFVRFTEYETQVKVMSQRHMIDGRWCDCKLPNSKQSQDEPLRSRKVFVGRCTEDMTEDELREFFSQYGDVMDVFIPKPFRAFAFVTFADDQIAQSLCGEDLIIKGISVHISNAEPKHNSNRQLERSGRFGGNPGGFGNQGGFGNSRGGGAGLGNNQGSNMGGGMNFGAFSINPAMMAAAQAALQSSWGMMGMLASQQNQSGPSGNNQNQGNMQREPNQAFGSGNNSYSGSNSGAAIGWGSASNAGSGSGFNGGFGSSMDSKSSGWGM

Row | Kd [nM] | koff [s⁻¹] | kon [M⁻¹ s⁻¹] | Binder
1 | 0.15 | 8.4e-06 | 58000 | B1
2 | 0.652 | 2.2e-05 | 47000 | B2
3 | 0.113 | 8.3e-06 | 74800 | B3
4 | 0.145 | 6.4e-06 | 44000 | B4
5 | 0.235 | 1.8e-05 | 47000 | B5
6 | 0.205 | 9.6e-06 | 48000 | B6

Molecular target: T3, recombinant human aggregated full-length TDP-43 (human, UniProt Q13148 1-414)
T3 construct: also called aggregated TDP-43; aggregated FL TDP-43
Experiment: SPR, immobilized aggregated TDP-43
Method: (§2) Binding avidity to soluble or aggregated FL TDP-43 was evaluated by determing the dissociation constants (KD) using surface plasmon resonance (SPR; Biacore T200, GE Healthcare Life Sciences). Recombinant human soluble or aggregated FL TDP-43 were immobilized on a CM5 Series S sensor chip (GE Healthcare Life Sciences) by amine coupling. Soluble TDP-43 was immobilized at a concentration of 5 µg/ml in 10 mM sodium acetate (pH 4.5) with a flow rate of 5 µl/min for 420 seconds resulting in an immobilization level of 150 RU. Aggregated TDP-43 was immobilized at a concentration of 50 µg/ml in 10 mM sodium acetate (pH 4.5) with a flow rate of 5 µl/min for 840 seconds resulting in an immobilization level of 110 RU. Biotinylated TP-73 peptide (aa 181-190 of SEQ ID NO:1) was immobilized on a Series S Sensor Chip SA (GE Healthcare Life Sciences) at a concentration of 5 µg/ml in PBS-P⁺ with a flow rate of 5 µl/min for 30 seconds resulting in an immobilization level of 400 RU. […] The antibodies were injected at a flow rate of 50 µl/min for 90 seconds contact time and 700 seconds dissociation phase followed by three regenerations with 10 mM glycine-HCl pH 1.7. For the optimized SPR protocol the antibodies were diluted 3-fold starting from 300 nM and dilute down to 1.2 nM and injected for 300 seconds at 30 µl/min followed by 600 seconds dissociation. The surface was regenerated by one injection with 10 mM glycine-HCl pH 1.7. Results obtained from binding kinetics were double-referenced using a blank flow cell and a buffer cycle and were evaluated with a global 1:1 fitting model with RI. Avidities for 11 antibodies and two Fab fragments are depicted in Table 8. […] In addition, some antibodies show preferential binding to aggregated TDP-43 as compared with soluble TDP-43.

T3 sequence (Q13148 whole entry): as above

Row | Kd [nM] | koff [s⁻¹] | kon [M⁻¹ s⁻¹] | Binder
7 | 2.25 | 0.000216 | 95900 | B7
8 | 0.82 | 7.1e-05 | 86100 | B8

Molecular target: T2, recombinant human full-length TDP-43 …
Experiment: indirect ELISA, coated FL TDP-43
Method: Antibody binding to human FL TDP-43 was determined using an indirect ELISA. ELISA plate coating with 1 µg/ml human FL TDP-43 was performed overnight in carbonate buffer at 4° C. Plates were washed with 0.05% Tween-20/PBS and then blocked with 1% bovine serum albumin (BSA) in 0.05% Tween-20/PBS for 1 hour at 37° C. Antibodies purified from hybridoma supernatants were then added in a 3-fold serial dilution starting at 1 µg/ml, and incubated for 2 hours at 37° C. after which the plates were washed. An AP-conjugated anti-mouse IgG secondary antibody (Jackson Immunoresearch Laboratories, United Kingdom) was added at 1/1000 dilution in 0.05% Tween-20/PBS for 1 hour at 37° C. After the final wash, plates were incubated with pNPP (Sigma-Aldrich, Switzerland) phosphatase substrate solution, and read at 405 nm using an ELISA plate reader (Tecan, Switzerland).

Row | EC50 [µg/mL] | Binder
9 | 0.017 | B7
10 | 0.053 | B8

Molecular target: T2, recombinant human full-length TDP-43 …
Experiment: SPR 8K, immobilized soluble TDP-43
Method: as §1

Row | Kd [nM] | koff [s⁻¹] | kon [M⁻¹ s⁻¹] | Binder
11 | 0.508 | 1.5e-05 | 29000 | B9
12 | 0.45 | 1.4e-05 | 32000 | B10

Molecular target: T1, TP-51 peptide (aa 352-414 of SEQ ID …)
Experiment: SPR 8K, mAb captured, TP-51 injected; IgG1
Method: (§3) The instrument was primed with running buffer PBS-P+. Fc 1-2 of channels 1-8 (8 K) were activated with a fresh solution of EDC/NHS(Amine Coupling Kit, 1:1 ratio of both reagents, GE Healthcare Life Sciences, BR-1006-33) at 10 µL/min for 420 sec and goat anti-human antibody (GE Healthcare Life Sciences, 29234600) was immobilized at 25 µg/mL in 10 mM sodium acetate pH 5 for 420 sec. Next, all Fc were quenched with 1 M ethanol amine(GE Healthcare Life Sciences, BR-1006-33), for 420 sec. Any non-covalently bound antibodies were removed by two regenerations with 10 mM Glycine-HCl pH 1.7 for 30 sec. Immobilization levels were evaluated following ethanolamine quenching (10000 RU for all channels).
(§4) Each cycle started with non-covalent capture of humanized variants which were diluted in running buffer to a final concentration of 2 µg/mL and injected for 60 sec with a flow rate of 10 µL/min. TDP-43 mAbs were captured on channels 1-8, leaving Fc 1 as a blank Fc. Capture levels were evaluated following a 120 sec stabilization period after each mAb injection and ranged from 300-500 RU.
(§5) Injections of TP-51 peptide (Pepscan) were performed in single-cycle kinetics with increasing concentrations ranging from 1.2-100 nM prepared from serial 3-fold dilutions. Injections were performed with contact times of 300 sec/injection at a flow rate of 25 µL/min. A dissociation phase of 3600 sec followed the final injection. Sensor surface was regenerated by one injection of 10 mM Glycine-HCl pH 1.7 at a flow rate of 10 µL/min for 120 sec, followed by a stabilization period of 300 sec. Results obtained from single-cycle kinetics were double-referenced using the blank Fc 1 and buffer cycles and evaluated by Biacore 8 K evaluation software with 1:1 kinetic fit model with RI and global Rmax. The following kinetic parameters were obtained: association rate constant (ka), dissociation rate constant (kd), affinity constant (KD) and saturation response (Rmax).

Row | Kd [nM] | koff [s⁻¹] | kon [M⁻¹ s⁻¹] | Binder
13 | 2.4 | 9.3e-05 | 39000 | B1
14 | 6.4 | 0.0011 | 170000 | B2
15 | 6.2 | 0.00021 | 35000 | B4
16 | 1.4 | 0.00023 | 170000 | B5
17 | 2.8 | 0.00015 | 53000 | B6

Molecular target: T2, recombinant human full-length TDP-43 …
Experiment: SPR, immobilized soluble TDP-43
Method: as §2

Row | Kd [nM] | koff [s⁻¹] | kon [M⁻¹ s⁻¹] | Binder
18 | 10.6 | 0.000821 | 77100 | B7
19 | 486 | 0.000774 | 1590 | B8

Molecular target: T1, TP-51 peptide (aa 352-414 of SEQ ID …)
Experiment: SPR 8K, mAb captured, TP-51 injected
Method: as §3, §4, §5

Row | Kd [nM] | koff [s⁻¹] | kon [M⁻¹ s⁻¹] | Binder
20 | 2.3 | 0.00026 | 110000 | B9
21 | 2.1 | 0.00021 | 97000 | B10

Molecular target: T2, recombinant human full-length TDP-43 …
Experiment: Luminex, FL TDP-43 on beads
Method: Mice were euthanized and fusion with myeloma cells was performed using splenocytes from four individual mice. Screening for antibodies from the successfully fused hybridoma cell lines were performed as follows. Diluted (1:32) cell culture supernatants were analyzed using Luminex bead-based multiplex assay (Luminex, The Netherlands). Luminex beads were conjugated to FL TDP-43 and with capturing IgGs with anti-mouse IgG-Fc antibodies specific for the IgG1, IgG2a, IgG2b, IgG2c, and IgG3 subclasses (Jackson Immunoresearch, USA). Binding to beads conjugated to FL TDP-43 identified 386 hits derived from mice immunized with the FL TDP-43 liposomal vaccine.
Luminex assays with serial dilution of antibodies were performed as described before to determine half maximal effective concentration (EC50) of binding of antibodies to FL TDP-43. In summary, all tested antibodies bind to full length TDP-43 with high affinity.

Row | EC50 [nM] | Binder
22 | < 0.01 | B7
23 | < 0.01 | B8
